Values of other authors, collected in PMC3384300.

Tested on: MS2 coat protein (bacteriophage MS2?)

In the case of natural MS2 coat protein aptamer, the Kd is listed as 20 pM.
